Assay results published in the nanobody polyreactivity screen of Harvey et al. (2022).

assay: yeast display, Sf9 membrane polyspecificity reagent, FACS + sequencing; frameworks hold sequencing errors
Method in brief: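 Nanobodies came from a synthetic yeast display library in Saccharomyces cerevisiae BJ5465, induced with galactose for 36–48 hours and stained for 1 hour at 4 °C with 10% biotinylated, detergent-solubilized Sf9 membrane reagent. Cells were enriched on streptavidin microbeads and then FACS-sorted, with low and high (top ~1%) gates set on anti-HA fluorescence for expression and streptavidin fluorescence for reagent binding. Each polyreactivity label reflects the gate a clone came from. Genes were amplified by colony PCR, sequenced by MiSeq 2 × 250 and filtered by CDR length.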

Sequence | polyreactivity (PSR sort gate)
QVQLVESGGGLVQAGGSLRLSCAASGITFSSNTRGCYRQATGNETELVAAISSSGGSTYYADSVKGRFTISRDNAKNTFYLQINSLKPEDTAVYYCNTVRFRGWVWWEYDYWGQGTQVTVSS | high polyreactivity
QVQLLESGGGLVQAGGSLRLSCAASGITFQLYAMGWYRQAPGKEREFVAAINGRSGRTYYADSVKGRFTISRDNAKNTVYLHMNSLKPEDTAVYYCAKTSNGYGSGLPMYYWGQGTQVTVSS | high polyreactivity
QVQLVESGGGLVQAGGSLRLSCAASGFTIRSYAMGWYRQAPGKERELVAGITWRSSSTYYADSVKGRFTISRDNAKNTVYLQMNSLKPEDTAVYYCAARAVYRFNYWGQGTQVTVSS | high polyreactivity
QVQLVESGGGLVQAGGSLRLSCAASGRIFRAYTMGWYRQAPGKERELVAAISGSGTSTYYADSVKGRFTISRDNAKNTVYLQMNSLKPEDTAVYYCAAPSLSGYGYEYWGQGTQVTVSS | high polyreactivity
QDQLVESGGGLVQAGGSLRLTCAASGSIFRYYVMGWYRQAPGKERELVAGISSSGGRTYYADSVKGRFTISRDNANNTVYLQMNSLKPEDTAVYYCNAVTSRRPYDYWGHGTQVTVSS | high polyreactivity
QVQRVESGGGVVQAGGSLRLSCAASGSTFQLYAMGWYRQAPGKERELVAGISRDGSTYYADSVKGRFTISRDNAKNTVYLQMNSLKPEDTAVYYCAAKYYGNKRDLYYWGQGTQVTVSS | low polyreactivity
QDQLVESGGGLVQAGGSLRLSCAASGSISSKNAMGCYRQAPGKEREFVAVISGTGGSTYYSDSVKGRFTISRDNAKNTVYLQMNRLKPEDTAVYYCAAAGSSIVSYGYSWTYGYWGQGTQVTVSS | low polyreactivity
QVQLVESGGGLVQAGGILRLSCAASGSIFDVYAMGWYRQAPGKERELVAAISRSGGRTYYADSVKGRFTISRDNAKNRVYLQMNSLKPEDTAVYYCATYPCNWDLDYWGHGTQVTVSS | high polyreactivity
QVQLVESGGGLVQAGGSLRLSCAASGRIFRFYAMGWYRQAPGKERELVAAISSRGGSTYDADSVKGRFTISRDNAKNTVYLQMNSLKPEDTAVYYCNAYGSTSQMDYWGQGTQVTVSS | high polyreactivity
QVQLVESGGGLVQAGGSLRLSCAASGIIFWWYAMGWYRQAPGKERELVAAISGTGGSTYYADSVKGRFTISRDNAKNTVYLQMNSLKPEDTAVYYCAKRASPFWRGYDSWGQGTQVTVSS | low polyreactivity
QVQLVESGGGLVQAGGSLRLSCAASGYTFRAYVMGRYRQAPGKEREMVAGITRRGGTTYYADSVKGRFTISRDYAKNTVYLQMNSLKPEDTAVYYCTAVFRSGSIPYVSWGQGTQVTVSS | high polyreactivity
RVQLVESGGGLVQAGGSLRLSCAASGSISQGNAMGWYRQAPGKERELVADIRWTSGRTYYADSVKGRFTISRDNAKNTVYLQMNSLKPEDTAVYYCAAYYVYYTPTLIDRDYWGQGNQVTVSS | low polyreactivity
QVQLVESGGGLVQAGGSLRLSCAASVRTFYRNAMGWYIQAPGKERELVAAITSGGSTYYADSVKGRFTISRDNAKNTVYLQMNSLKPEDTAVYYCAALRHALRYDYWGQGTQVTVSS | low polyreactivity
QVQLVESGGGLVQAGGSLRLSCAASGNTFVYYAMGWYRQAPGKERELVAGISRRSGSTYYADSVKGRFTISRDNAKNTVYLQMNSLKPEDTAVYYCAKGRTYLDADDYWGQGTQVTVSS | low polyreactivity
QVQLVESGGGLVQAGGSLRLSCAASGFIFPNYAMGWYRQAPGKEREFVASISWSGGSTYYADSVKGRFTISRDNAKNTVYLQMNSLKPEDTEVYYCNAVAFFNHGAGEDYWGQGTQVTVSS | high polyreactivity
QVQLVESGGGLVQAGGSLRLSCAASGSTFVPYPMGWYRQAPGKERELVAAISSTGGSTYYADSVKGRFTISRDNAKNTVYLQMNSLKPEDNAVYYCNALAKIRYGQINKGYYRGQGTQVTVSS | high polyreactivity
QVQLVESGGGLVQAGGSLRLSCAASGSIFENNVMGWYRQAPGKERELVAVISWNGGRTYYADSVKGRFTISRDNAKNTVYLQMNSLKPEDTAVYYCNAQGYFWSESIEYDYWGQGTQVTVSS | low polyreactivity
QVQLVESGGGLVQAGGSLRLSCASSGRTFGTNTMGWYRQAPGKERELVAAISRSGVRTYYADSVKGRFTISRDNAKNTVYLQMKSLKAEDTAVYYCATDYKVHGFDYWGQGTQVSVSS | high polyreactivity
QVQLVESGGGLLQAGGSLRVSCAASGSIFHENAMGWYRQAPGKERELVAAIDQTGSTYADSVKGRFTISRDNAKNTVYLQMNSLKPEDTAVYYCAKGDVSLDYPSLEFDYWGQGSQVTVSS | low polyreactivity
QVQLVESGGGLVQAGGSLRLSCAASGRIFYSNTMGWYRQAPGKVRELVAAISRRGGSTYYADSVKGRFTISRDNAKTTVYLQMNSLKPEDTALYYCNTGYSTRLHDYWGQGTQVTVSS | high polyreactivity
QVQLVESGGGLVQAGGSLRLSCAASGSTFYLNAMGWYRQAPGKERELVAVITRSGGNTYYADSVKGRFTISRDNAKNTVYLQMNSLKPEDTAVYYCNKRPTGGKYEYWGQGTQVTVSS | high polyreactivity

Sequence | polyreactivity (PSR sort gate)
QVQLVESGGGLVQAGGSLRLSCAASGITFYYYAMGWYRQAPGKERELVAAISFRGGSTYYADSVKGRFTISRDNAKNTVYLQMNSLKPEDTAVYYCAKAWSYTDPPRGDYWGQGTQVTVSS | high polyreactivity
QVQHVESRGCLLQAGGSLRLSCAASGITFRYYTMGWYRQAPGKESELVAAITWSGSSTYYAVSVKGRFTISRDNAKNTVYLQMNSLKPEHTAVYYCAKPYHQRSAKVDYWGQGTQVTVSS | low polyreactivity
QVQLVESGGGLVQAGGSLRLSCAASGSIFYTYVMGWYRQAPGKERELVAAITWSGGSTYYADSVKGRFTISRDNAKNTVYLQMNSLKPEDTAVYYCAAVRGYRSSKYDYWGQGTQVTVSS | high polyreactivity
QVQLEESGGGLVQAGGSLRLSCAASGRNFLYNAMGWYRQAPGKERELVAAITASGGTTYYADSVKGRFTISRDNAKNNVYLQMNSLKPEDTAVYYCNAYSYSGERYYWGQGTQVTVSS | high polyreactivity
QVQRVESGGGLFQAGGSLRLSCAASGITFRYYNMGWYRQAPGKERELVAAISSSGGSTYYADSVKGRFTISRDNAKNTVYLQMNSLKPEDTAVYYCAAESKYSTSSPRRDYWGQGTQVTVSS | high polyreactivity
QVQLVESGGGLVQAGGSLRLSCAASGSIISNYVMGWYRPAPGKERELVAAITRRGGRTYYADSVKGRFTISRDNAKNTVYLQMNSLKPEDTAVYYCAAERYPEAGSPYGTAEMDYWGQGTLVTVSS | high polyreactivity
QVQLVESGGGLVQAGGSLRISCAASGRICAYNAMGWYRQAPGKERELVAAITWSGGTTYYADSVKGRCTISRDNAKNSVYFQRNSLKPEVTAVYYCAATVGAASRYYYWAQGTQVTVSS | high polyreactivity
QVQLVESGGGLVQAGGSLRLSCAASGFTFSSNAMGWYRQAPGKERELVAVIDSGDITNYADSVKGRFTISRDYAKNTVYLQMNSLKPEDTAVYYCAADSYSYFTDDHGYWGQGTQVTVSS | high polyreactivity
QVQLVESGGGLVQAGGSLRLSCAASGLTFGRNAMGWYRQAPGKERELVAAISRSGGRTSYADSVKGRFTISRDNAKNTVYLHMNSLKPEDTAVYYCAARSPIYRTTYYYWGQGTQVTVSS | high polyreactivity
QVQLVESGGGLVQAGGSLRLSCAASGLTFDTYAMGWYRQAPGKERELVAAISICGRTNYADSVKGRFTISRDNAKNTVYLQMNSLKPQDTAVYYCAVGAVVPGRRRRTYYYWGQGTQVTVSS | high polyreactivity
QVQLVESGGGLVQAGGSLRLSCAASGFSFKRYAMGWYRQAPGKERELVADITRGGRTNYADSVKGRFTISRDNAKNTVYLQINSLKPEDTAVYYCNAVRQKYRFEYDYWGQGTQVTVSS | high polyreactivity
QVQLVESAGGLVQAGGSHRLSCAASASIFDGYAMGWYRQAPGKEREVVAAIRRSGVDTYYADSVKGRFTISRDNAKTTVYLQMNSLKPEDTAVDYCAADSYPSPNFEDNYWRQGTQVTVSS | low polyreactivity
QVQLVESGGGLVQAGGSLRLTCAASGITFYSYAMGWYRQAPGKERELVAAITRSGGSTYYADSVKGRFTISRDNAKNTVYLQMNSLKPEDTAVYYCAADEGRVFSGGYDYWGQGTQVTVSS | high polyreactivity
QVQLVESGGGLVQAGGSLRLSCAASGSTFGSYAMGWYRQAPGKERELVADISSRGASTYYADSVKGRFTISRDNAKNTVYFQMNSLKPEDTAVYYCARDVYIWYGYGYFPEYEYWGQGTQVTVSS | low polyreactivity
QVQLVESGGGLVQAGGSLRLSCAASGFIFYLYTMGWYRQAPGKERELVAAITKSGTRTYYADSVKGRFTISRDNAKNTVYLQMNSLKPEDTAVYYCAAEWGSSYRWGMDYWGQGTQVTVSS | high polyreactivity
QVQLVESGGGLVQAGGSLRLSCAASGFTFRYYAMGWYRQAPGKERELVAAINYSGGSTFYADSVKGRFTISRDNAKNTVYLQMNSLKPEDTAVYYCAATRLTPYIYGGKYNYWGQGTQVTVSS | high polyreactivity
QVHLQESGGGLMQAGGNLRLSCAASGYISTHYDMDWYRQAPGKERELVARIDDGAITNYADSVKGRFTISRDNAKNTVYLQMNSLKPEDTEVYYCAVYSGDDYYHDYWGQGTQVTVSS | low polyreactivity
QVQLVESGGGLVQAGGSLRLSCAASGRIIWSNAMGWYRQAPGKERELVAGITGSGGNTYYADSVKGRFTISRDNAKNTVYLHMNSLKPEDTAVYYCNARSGSRPSSSYRYDYWGQGTQVTVSS | low polyreactivity
QVQLVESAGGLVQAGGSLRLSCAASGRIFKFYTMGWYRQAPGKERELVAAISSSDGSTHYADSVKGRFTISRDNAKNTVYLQMNSLKPEDTAVYYCAAQGGRNRGYRYYWGQGTQVTVSS | high polyreactivity
QVQLVESGGGLVQAGGSLRLSCAASGFIFYTNAMGWYRQAPGKERELVAAISRGGTTYYADSVKGRFTISRDNAKNTVYLQMNSLKPEDTAVYYCAKAWPDHWYSRYDYWGQGTQVTVSS | low polyreactivity
